Columns and labels:
rice HPPD (OsHPPD) = assay: Color reaction of recombinant E. coli expressing wild-type or mutant rice HPPD, cultured in 96-well plate in medium containing an HPPD-inhibiting herbicide and tyrosine; assay type: cell-based, Oryza sativa; conditions: compound 101
How it was run: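 E. coli clones expressing wild-type or single-site-mutant rice HPPD (residues 51 onward, NNK saturation mutagenesis, pET-44a) grown 24 h at 28 °C in 2×YT with 1 g/L L-Tyr, 0.1 mM IPTG, 0.01 mM MnCl2 and herbicide at 1–20 μM final (tembotrione 1.7 μM, mesotrione 10 μM). Brown homogentisate colour scored semi-quantitatively versus wild type.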

[1] = test system: Huaidao No. 5 rice seedlings; assay: Gene-edited rice seedlings (base editing / homologous replacement of HPPD gene) on medium containing tembotrione; assay type: in vivo; conditions: medium containing 0.4 μM tembotrione
Method: The calli of Huaidao No. 5 (at least 3000 callis) were infected according to the aforesaid method for infecting rice callis with Agrobacterium. After being infected with Agrobacterium, the infected calli were transferred to a 50 mg/L hyg screening medium for screening culture. After three rounds (15 days×3) of screening, the blond calli with good growth state were picked out to differentiate in a differentiation medium, and 0.2 μM tembotrione was added during the differentiation process for screening. After for 3-4 weeks, about 1,500 seedlings with around 1 cm were obtained. As to the about 1,500 differentiated seedlings, the vast majority of which had been bleached, and only 4 seedlings remained normal green. The 4 seedlings were transplanted to a rooting medium containing 0.4 μM tembotrione and cultivated for 2 weeks, wherein two seedlings had been bleached, while the other two seedlings remained green (FIG. 14A). A small number of leaves were used to extract genomic DNA by CTAB method. PCR was carried out by using the primers oshppd54F: TTCCACCACGTCGAGCTC and Oshppd356R: […]. The amplified product was detected by 1% agarose electrophoresis and sequenced by Sanger sequencing method. […]

B1: H141R/G342D/D370N: three-site mutant rice HPPD (OsHPPD3M) (protein, listed as Oryza sativa)
chain: MPPTPTPTATTGAVSAAAAAGENAGFRLVGHRRFVRANPRSDRFQALAFHHVELWCADAASAAGRFAFALGAPLAARSDLSTGNSAHASLLLRSASVAFLFTAPYGGDHGVGADAATTASIPSFSPGAARRFAADHGLAVRAVALRVADAADAFRASVAAGARPAFQPADLGGGFGLAEVELYGDVVLRFVSHPDGADAPFLPGFEGVSNPGAVDYGLRRFDHVVGNVPELAPVAAYISGFTGFHEFAEFTAEDVGTAESGLNSVVLANNAETVLLPLNEPVHGTKRRSQIQTYLDHHGGPGVQHIALASDDVLGTLREMRARSAMGGFEFLAPPPPNYYDDVRRRAGDVLSEEQINECQELGVLVDRDNQGVLLQIFTKPVGDRPTFFLEMIQRIGCMEKDESGQEYQKGGCGGFGKGNFSELFKSIEEYEKSLEAKQAPTVQGS
modifications: The amino acid sequence of Wild-Type rice HPPD protein (OsHPPD _WT)
In the case of B1, the “concentration of 101 required to have no significant color reaction” value (rice HPPD (OsHPPD)) is reported as 120 µM and the “state of successfully edited seedlings” value [1] is reported as “remain green”.

— patent US12428627B2, “Mutant p-hydroxyphenylpyruvate dioxygenase, and coding nucleic acid and use thereof” (Qingdao Kingagroot Chemical Compound Co., Ltd., priority 2018, dated 2025)
